Assay: In vitro glucosylation of oripavine and nororipavine by purified UGTs
Assay type: biochemical
Details: for preference for nororipavine glucosylation compared to oripavine glucosylation: purified UGT, 500 μM substrate, overnight at 30° C., HPLC
Experimental: Glucosylation samples of a 20 μL total reaction volume for each UGT to be tested were prepared in 96-well microtiter plates as follows:
The microtiter plate was sealed with an adhesive seal, spun shortly and the glucosylation samples were incubated overnight at 30° C. After incubation, glucosylation reaction was terminated by adding 3 volumes (60 μL) of ice-cold 100% methanol the reaction volume and mixing well, followed by centrifugation of the plate at 3000 rpm for 5 min at 4° C. and analysis by HPLC.
The 72UGTs of Table 5 were tested in vitro to using the test setup of example 3 identify those having having specificity toward nororipavine.

[1] = 72UGTs, test setup of example 3, FIG. 8

Molecule | preference for nororipavine glucosylation compared to oripavine glucosylation | glucosylation activity [1] | specificity for nororipavine compared to oripavine [1]
KAF3968554: subfamily 72 UGT, sequence homolog of Qs72S_1 (protein, listed as Castanea mollissima) MEQKPHIGILPSPGMGHLIPLVEFAKLLVHHHDFNITCIIPVLGSPSKAMKAVLHALPTTIDHVFLPPVILEEEEMKGPRFEVQTILTLTRSLPPLRDVLKSTRFSAFVVDPFGIDALDIAKELNISPYIFFPTNAFALSLIFHLPKLDETVSCEYRDLPEPLKLPGCIPIHGRDLAEPFQNRTSESYKMFLRIAKRFRLAEGIIVNTFMGLEGSAIKALLEEEAKNLPLYPVGPIQSGSSNQVEESDCLRWLGNQPHGSVLFVCFGSGGTLSYDQTNELALGLELSGQKFLWVVRTPNNESADAAYLSDQTLYNNPLAFLPKGFVERTEGQGLAVPSWAPQAQVLSHGSTGGFLTHCGWNSSLESIMQGIPLIAWPLYAEQKMNAVLLAEDLKVALRPKTNKNGLIDREEIAKVVKGLMDGEEGKKVRNRMKDIKIAAEKALNVDGSSTKTLSKLASKWKNHSSF | particularly strong preference for Nororipavine glucosylation |  | 
Qs72S_1: subfamily 72 UGT (glycosyltransferase) from Quercus suber (protein, Quercus suber, subfamily 72 UGT (glycosyltransferase) from Quercus suber) MEQKPHIALLPSPGMGHLIPLVEFAKQFVLHHDFHITCIIPVLGSPSKAMKAVLQALPTTIDHVFLPPVILEEEEIKGLKFEVQTILTLTRSLPPLREVLKTTRFSAFVVDPFGIDALDIAKELNISPYIFFPSNAFALSLIFHLPKLDETVSCEYRDLPEPLKLPGCIPIHGRDLIEPVQDRTSELYKMFLRNAKRFRLAEGIIVNTFMELEGSAIKALLDEEAKNLPLYPIGPIQSGSSNLQVDKSVSDCLRWLDNQPHGSVLFVCFGSGGTLSYDQTNELALGLELSGQKFLWVVRTPNNESADAAYLSDQILDNNPLDFLPKGFVERTEGQGLAVPSWAPQAQVLSHGSTGGFLTHCGWNSTLESIMQGIPLIAWPLYAEQKMNAPLLAEDLKVALRPKTNKSGLIDQEEIAKVVKGLMIGEEGKKVYNRMKDIKMAAEKALSADGSSTKALSELASQWKNHPGF | particularly strong preference for Nororipavine glucosylation | high activity | particularly high specificity
XP_023876189: subfamily 72 UGT, sequence homolog of Qs72S_1 (protein, Quercus suber) MEQKPHIAILPSPGMGHLIPFVEFAKLLLLHHDFHITCIIPTIGSPSKAMREVLQALPTSIDHVFLPPVSLEELGGVKPGIQITLTMIRSLPPLREVLTSLVATTRLVALVVDLFGTDALDVAKELNVSPYIFYPTNAMVVSLVLHLPKLDETVSCEYRDLPEPVKLPGCVPIHGRDLLDPIQDRTTELYKLFLRGAKWLRLVEGIIVNTFMELDGNVIKALEDEEAKSGTIYTIGPIIQSSSTKHVEGSDGLRWLDNQPRGSVLFVCFGSGGTLSYDQMKELALGLELSKQKFLWVVRSPNNELAQAAYFSDQTLDNNPLSFLPVGFIERTKEQGLVVPSWAPQAQVLSHDSTGGFLSHCGWNSTLESIMQGIPLIAWPLFAEQRMNALLLTEDLKVALRPKANEKNLVDREEIAKVIKSLMVGEDGKKIHSRMKDLKIAAEKALSPNGPSTKALADLASHWTNQSNS | particularly strong preference for Nororipavine glucosylation |  | particularly high specificity
SrUGT71E1: subfamily 71 UGT from Stevia rebaudiana (protein, listed as Stevia rebaudiana) MSTSELVFIPSPGAGHLPPTVELAKLLLHRDQRLSVTIIVMNLWLGPKHNTEARPCVPSLRFVDIPCDESTMALISPNTFISAFVEHHKPRVRDIVRGIIESDSVRLAGFVLDMFCMPMSDVANEFGVPSYNYFTSGAATLGLMFHLQWKRDHEGYDATELKNSDTELSVPSYVNPVPAKVLPEVVLDKEGGSKMFLDLAERIRESKGIIVNSCQAIERHALEYLSSNNNGIPPVFPVGPILNLENKKDDAKTDEIMRWLNEQPESSVVFLCFGSMGSFNEKQVKEIAVAIERSGHRFLWSLRRPTPKEKIEFPKEYENLEEVLPEGFLKRTSSIGKVIGWAPQMAVLSHPSVGGFVSHCGWNSTLESMWCGVPMAAWPLYAEQTLNAFLLVVELGLAAEIRMDYRTDTKAGYDGGMEVTVEEIEDGIRKLMSDGEIRNKVKDVKEKSRAAVVEGGSSYASIGKFIEHVSNVTI | preference for glucosylation of nororipavine |  | 
PWA37695: subfamily 73 UGT (protein, listed as Artemisia annua) MVAPSTELHFVMFPLMAQGHIVPMVDIARILAEKGATVTIFATPLVANRFRPVISRAIEAKLKIQILELELQVAKVGLPEGCQSFEKLPSSDSSAKLFAAMDLLEQPAEDLVRKLSPPPDCIISDFLFPWTTDMARRFNIPRLVFHGPGCFWLVCMHAVFSSDKFKTIKLEEKFMLPGLPDQVEVTKLQITGTKEIKPEQMGFWVRATEAEKAAYGTVVHTFYELEPEYVKEYSKVKDTKVWCIGPVALSNKANLDIAERGNKAAINEHDCLKWLDEKEPGSVFYVCLGSITRLSTEQAIEIALGLESTNQPFLWFLRNKTQELEKWFSEVGFEERVKDRGLIVHGWAPQILILSHCAVGGFLTHCGWNSTLEGVSFGVPMVTWPHFADQFLNETFIVEILKIGVRIGVDIPELYGEEDKLEALVKKEDVKRAVECLMDKEDKEAKQRRKRARKLAEMAKRAMAEGGSSYVNVSSLIQDITEFRNTQRLNRLHV | very strong preference for oripavine glucosylation |  | 
XP_023905565: subfamily 72 UGT, sequence homolog of Qs72S_1 (protein, Quercus suber) MEQKPHIALLPSPGMGHLVPLVELAKLLLLHHDFHITCIIPVLGSPSKAMKAVLQALPTSIDHVFLPPVILEEEEIKGLKLEVQAMLTLTRSLPPLRDVLKSTRFSAFVVDPFGIDALDIAKELNISPYIFFPSNAFALSLVLHLPKLDETVSCEYRDLPEPIKLPGCITIHGRDLLEPVQDRTSELYKMFLSNTKRYRLAEGIIVNTFMELEGSAIKALLEEEAKNLPLFPVGPIQSGSSNQVDKSESDCLRWLDNQPHGSVLFVCFGSGGTLSYDQTNELALGLELSGQKFIWVVRTPNNESADATYLSDQTLGNNPLAFLPKGFVERTKGQGLVVPFWAPQAQVLSHGSTGGFLTHCGWNSTLESIMQGIPLIVWPLFAEQKMNAALLAEDLKVALRPKTNKNGRIDREEITKVVKGLMVGEEGKKVRNRMKDIKIAAEKALSADGSSTKALSKLATQWKNHSDF | particularly strong preference for Nororipavine glucosylation |  | 
XP_023875154: subfamily 72 UGT, sequence homolog of Qs72S_1 (protein, Quercus suber) MLSKMEQKPHIALLPSLGMGHLIPLVEFAKQFVLHHDFHITCIIPVLGSPSKAMKAVLQALPTAIDHVFLPPVKLEEEEIKGLKFEVQTILTLTRSLPPLREVLKSTRFSAFVVDPFGIDALDIAKELNISPYIFFPTNAFALSLIFHLPKLDETVSCEYRDLPEPLKLPGCIPIHGRDLLEPVQDRTSELYKMFLRNAKRFRLAEGIIVNTFMELEGSAIKALLDEEAKNLPLYPIGPIQSGSSNQVDKSESDCLRWLDNQPHGSVLFVCFGSGGTLSYDQTNELALGLELSGQKFLWVVRTPNNESADAAYLSDQTLNNNLLAFLPKGFVERTEGQGLAVPSWAPQAQVLSHGSTGGFLTHCGWNSTLESIMQGIPLIAWPLYAEQKMNAPLLAEDLKVALRPKTNKNGLIDREEIAKVVKGLMIGEEGKKVYNRMKDIKMAAEKALSADGSSTKALSELASQWKNHPGF | particularly strong preference for Nororipavine glucosylation |  | particularly high specificity
XP_030967178: subfamily 72 UGT, sequence homolog of Qs72S_1 (protein, listed as Quercus lobata) MEQKPHIALLPSPGMGHLIPLVELAKLLLLHHDFHITCIIPVLGSPSKAMKAVLQALPTSIDNVFLPPVILEEEEIKGLKLEVQAMLTLTRSLPPLRDVLKSTRFSAFVVDPFGIDALDIAKELNISPYIFFSSNAFALSLVLHLPKLDETVPCEYRDLPEPVKLPGCIPIHGRDLIEPVQDRTSELYKMFLTNAKRYRLAEGIIVNTFMELEGSAIKAMLEEEAKNLPLFPVGPIQSGSSNQVDKLESDCLSWLDNQPHGSVLFVCFGSGGTLSYEQTNELALGLELSGQKFIWVVRTPNNESADATYLSDQNLGDNPLAFLPKGFVERTKGQGLVVPLWAPQAQVLSHGSTGGFLTHCGWNSTLESIMQGIPLIVWPLFAEQKMNAALLAEDLKVALRPKTDKNGLIDREEIAKVVKGLMVGEEGKKVHNRMEDIKIAAEKALSADGSSTKALSKLATQWKNHPDF | particularly strong preference for Nororipavine glucosylation |  | particularly high specificity
KAF3968553: subfamily 72 UGT, sequence homolog of Qs72S_1 (protein, listed as Castanea mollissima) MEQKPHIALLPSPGMGHLIPLVEFAKLFVLHHDFRITCIIPVLGSPSKAMKAVLQALPTTIDHVFLPPVILEEEEIKGLKFEVQTILTLTRSLPPLRDVLKSTRFSAFVVDPFGIDALDIAKELKISPYIFFPTNAFVLSLMFHLPKLDETVSCEYRDLPEPLKLPGCIPIHGRDLIEPVQDRTSELYKMFLRNVKRFRLAEGIIVNTFMELEGSAIKALLDEEAKNLPLYPIGPIQSGSSNLQVDKSESDCLRWLDNQPRGSVLFVCFGSGGTLSYDQTNELALGLELSGQKFLWVVRTPDNESADAAYLSDQTLDNNPLAFLPKGFVERTEGQGLAVPSWAPQAQVLSHGSTGGFLTHCGWNSTLESIMQGIPLIAWPLYAEQKMNAPLLAEDLKVALRPKTNKNGLIDREEIAKVVKGLMVGEEGKKVHNRMKDIKIAAEKALSADGSSTKTLSELASQWKNHPGF | particularly strong preference for Nororipavine glucosylation |  | particularly high specificity
